The target in experiment [1] is T1, monomeric human CD40 extracellular domain (CD40 ECD) (human, UniProt P25942 21-193).
T1 construct: extracellular domain; it is not tied to the assay protein; also called Hu CD40
The experiment is described as follows: BLI (Octet), antibody on anti-human Fc sensor, monomeric ECD analyte, 1:1 model. An excerpt: (§1) The Octet systems use propriety BLI to analyze biomolecular interaction.
In general terms: Biolayer interferometry detects binding as a change in optical thickness at a sensor tip.

Experiment [2] concerns the target T2, monomeric human DEC205 extracellular domain (DEC205 ECD) (human, UniProt O60449 28-1666).
T2 construct: extracellular domain; none tied to the assay protein
Described as above. The method, then: (§2) The Octet systems use propriety BLI to analyze biomolecular interaction. […] Data were analyzed using Octet Data Analysis Software 9.0 (ForteBio) and fitted to the 1:1 binding model. Equilibrium dissociation constants (KD) were calculated by the […].

In experiment [3] the target is T3, monomeric human HER2 extracellular domain (HER2 ECD) (human, UniProt P04626 23-652).
T3 construct: extracellular domain; not tied to the assay protein; also called Hu Her2
The description is as above.
Excerpt: as §1

For experiment [4], the target named is T4, human HER2 expressed on transiently transfected CHO cells (human, UniProt P04626 23-1255).
T4 construct: whole, on cells; also called HER2-expressing CHO cells; CHO-HER2
The experiment is described as follows: statement in the macrophage ADCC assay with HER2-expressing CHO cells.
Experimental: Monocyte-derived macrophages were generated by culturing monocytes for 7 days in the presence of GM-CSF. […] After 24 hours, CHO viability was assessed by flow cytometry as a readout of ADCC activity.
Monocytes were isolated from human peripheral blood mononuclear cells (PBMCs) using magnetic bead-based negative selection and cultured 7 days in the presence of GM-CSF to generate macrophages. A CHO cell line was engineered to overexpress human HER2 using standard transient transfection methods and used in assays 2 days after transfection. […] After 24 hours, CHO frequency was assessed by flow cytometry as a readout of ADCC activity.

The target of experiment [5] is T5, monomeric human CEA extracellular domain (CEA ECD; CEACAM5) (human, UniProt P06731 35-685).
T5 construct: extracellular domain; not tied to the assay protein; also called CEACAM5 (CEA)
T5 sequence (looked up): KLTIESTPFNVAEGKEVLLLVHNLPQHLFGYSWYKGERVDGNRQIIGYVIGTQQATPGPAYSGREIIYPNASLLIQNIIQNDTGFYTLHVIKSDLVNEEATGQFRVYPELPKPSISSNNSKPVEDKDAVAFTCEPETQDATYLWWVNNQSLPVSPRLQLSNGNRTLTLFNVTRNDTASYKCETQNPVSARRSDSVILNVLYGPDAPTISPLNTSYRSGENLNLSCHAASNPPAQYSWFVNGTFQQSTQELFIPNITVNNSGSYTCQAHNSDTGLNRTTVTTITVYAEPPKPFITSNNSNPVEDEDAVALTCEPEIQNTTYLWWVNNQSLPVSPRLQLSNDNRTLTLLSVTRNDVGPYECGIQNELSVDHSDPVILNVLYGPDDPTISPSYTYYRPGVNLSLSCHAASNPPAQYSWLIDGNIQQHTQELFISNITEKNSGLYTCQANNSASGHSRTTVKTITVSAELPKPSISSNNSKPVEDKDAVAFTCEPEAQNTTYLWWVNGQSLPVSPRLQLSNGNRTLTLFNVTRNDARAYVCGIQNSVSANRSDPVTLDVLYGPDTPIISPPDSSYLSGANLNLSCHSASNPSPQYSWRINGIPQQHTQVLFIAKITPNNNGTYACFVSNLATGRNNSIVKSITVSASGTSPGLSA
The experiment is described as follows: BLI (Octet), antibody on anti-human Fc sensor, monomeric ECD analyte, 1:1 model. The method, then: as §2

T2 sequence (O60449 28-1666): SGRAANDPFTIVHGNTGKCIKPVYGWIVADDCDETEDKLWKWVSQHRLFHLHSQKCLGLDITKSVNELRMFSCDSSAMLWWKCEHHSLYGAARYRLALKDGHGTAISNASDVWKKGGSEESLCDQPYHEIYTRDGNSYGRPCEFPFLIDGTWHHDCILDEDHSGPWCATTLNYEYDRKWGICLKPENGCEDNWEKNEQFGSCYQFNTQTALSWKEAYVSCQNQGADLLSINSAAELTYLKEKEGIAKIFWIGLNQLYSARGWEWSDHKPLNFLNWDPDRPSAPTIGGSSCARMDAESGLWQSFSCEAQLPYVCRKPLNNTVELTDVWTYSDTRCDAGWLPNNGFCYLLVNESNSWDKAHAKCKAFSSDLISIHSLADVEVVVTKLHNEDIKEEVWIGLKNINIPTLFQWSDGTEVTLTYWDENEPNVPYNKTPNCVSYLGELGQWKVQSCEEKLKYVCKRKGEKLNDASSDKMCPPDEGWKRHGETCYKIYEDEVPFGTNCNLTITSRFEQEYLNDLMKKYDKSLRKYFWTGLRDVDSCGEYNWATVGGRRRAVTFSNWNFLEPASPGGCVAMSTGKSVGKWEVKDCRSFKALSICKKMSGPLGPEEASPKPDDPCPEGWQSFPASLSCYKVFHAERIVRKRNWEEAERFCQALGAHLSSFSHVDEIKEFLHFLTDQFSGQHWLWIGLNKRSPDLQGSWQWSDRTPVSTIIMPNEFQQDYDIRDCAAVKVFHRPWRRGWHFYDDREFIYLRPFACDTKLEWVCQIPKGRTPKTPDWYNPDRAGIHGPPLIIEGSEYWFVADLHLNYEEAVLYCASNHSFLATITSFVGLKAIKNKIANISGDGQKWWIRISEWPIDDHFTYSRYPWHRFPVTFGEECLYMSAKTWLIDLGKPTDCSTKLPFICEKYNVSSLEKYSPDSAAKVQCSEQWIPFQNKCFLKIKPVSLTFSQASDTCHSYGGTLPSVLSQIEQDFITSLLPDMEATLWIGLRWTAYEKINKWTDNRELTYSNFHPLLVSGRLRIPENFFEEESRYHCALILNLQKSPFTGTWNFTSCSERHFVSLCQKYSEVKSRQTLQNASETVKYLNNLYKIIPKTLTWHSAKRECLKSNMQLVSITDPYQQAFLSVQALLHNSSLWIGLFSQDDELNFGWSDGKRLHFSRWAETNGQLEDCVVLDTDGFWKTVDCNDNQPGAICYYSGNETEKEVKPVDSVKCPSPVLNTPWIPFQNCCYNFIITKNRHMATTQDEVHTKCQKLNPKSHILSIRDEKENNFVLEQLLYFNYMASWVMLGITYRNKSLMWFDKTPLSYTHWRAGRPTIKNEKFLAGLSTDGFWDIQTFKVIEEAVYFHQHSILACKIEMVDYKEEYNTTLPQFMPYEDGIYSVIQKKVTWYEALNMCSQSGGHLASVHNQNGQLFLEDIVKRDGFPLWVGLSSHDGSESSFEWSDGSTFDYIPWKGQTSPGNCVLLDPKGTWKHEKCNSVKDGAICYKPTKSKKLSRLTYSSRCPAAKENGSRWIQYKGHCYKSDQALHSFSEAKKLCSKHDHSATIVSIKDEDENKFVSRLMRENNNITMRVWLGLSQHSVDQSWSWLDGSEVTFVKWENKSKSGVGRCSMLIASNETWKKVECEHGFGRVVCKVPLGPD
T1 sequence (P25942 21-193): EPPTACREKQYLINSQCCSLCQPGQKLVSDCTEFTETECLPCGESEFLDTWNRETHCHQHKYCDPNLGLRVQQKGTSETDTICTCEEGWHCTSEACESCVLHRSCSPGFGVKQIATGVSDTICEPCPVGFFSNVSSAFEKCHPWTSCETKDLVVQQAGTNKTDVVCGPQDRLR

B1: parental anti-HER2 monoclonal antibody (SBT-050G1), pertuzumab (antibody, human IgG1, kappa)
heavy: not shown
light: not shown
notes: also called Parental anti-HER2 antibody; Parental Anti-HER2 Antibody
Consider B1, for which the binding result in experiment [1] and in experiment [2] was “no binding (tested: 1.2 nM to 300 nM)” each time.

B2: parental anti-CD40 monoclonal antibody (SBT-040G1) (antibody, human IgG1, kappa)
heavy: not shown
light: DIQMTQSPSSVSASVGDRVTITCRASQGIYSWLAWYQQKPGKAPNLLIYTASTLQSGVPSRFSGSGSGTDFTLTISSLQPEDFATYYCQQANIFPLTFGGGTKVEIKRTVAAPSVFIFPPSDEQLKSGTASVVCLLNNFYPREAKVQWKVDNALQSGNSQESVTEQDSKDSTYSLSSTLTLSKADYEKHKVYACEVTHQGLSSPVTKSFNRGEC
notes: Human IgG1 anti-CD40; also called Parental anti-CD40 antibody; Parental Anti-CD40 Antibody
In the case of B2, the figures for the binding result in experiment [3], in experiment [4] and in experiment [5] were “no binding (tested: 1.2 nM to 300 nM)”, “no binding” and “no binding (tested: 1.2 nM to 300 nM)”, respectively.

Values taken from US20190336615A1 (SILVERBACK THERAPEUTICS, published 2019).
